Measured values as given in US20210269549A1, “ANTI-SAS1B ANTIBODIES, ASSOCIATED METHODS OF USE, AND COMPOSITIONS AND METHODS FOR DETECTING AND TREATING CANCER” (UNIVERSITY OF VIRGINIA PATENT FOUNDATION, priority 2015, published 2021).

What was measured:
[1] = tested on: human uterine cancer cells (MMMT539); assay: Antibody drug conjugate cytotoxicity (ADC) assay, MMMT539; format: cell-based; conditions: FIG. 3A-B
Procedure: The cytotoxic effect of anti-human SAS1B mAbs SB2 and SB5 on human uterine cancer cells (MMMT539) was examined by antibody drug conjugate cytotoxicity (ADC) assay. Human uterine cancer cells MMMT539 were seeded in triplicate on 96 well plate overnight and then treated with SB2 or SB5 and anti-mouse Fab-cleavable-Duocarmycin complex for ˜90 h. The presence of viable live cells per well was measured by total cellular ATP content in relative luminescence unit (RLU). Viability of control live cells (100%) was determined from average of 9 wells in terms of total cellular ATP (in RLU) containing the constant 15 nM Fab-CL-DMDM for each set of antibody/reagent. […] Staurosporine, a general protein kinase inhibitor, was used to induce apoptosis in 1% DMSO as a positive control for the assay.

[2] = target: T1, human SAS1B (Homo sapiens, UniProt Q6HA08); assay: Western blot of human SAS1B probed with anti-human SAS1B murine mAbs; format: binding; conditions: for Specifically binds human SAS1B (and not mouse SAS1B): Table 1
T1 construct: made in house; host or cells: E. coli
T1 sequence (Q6HA08 24-431): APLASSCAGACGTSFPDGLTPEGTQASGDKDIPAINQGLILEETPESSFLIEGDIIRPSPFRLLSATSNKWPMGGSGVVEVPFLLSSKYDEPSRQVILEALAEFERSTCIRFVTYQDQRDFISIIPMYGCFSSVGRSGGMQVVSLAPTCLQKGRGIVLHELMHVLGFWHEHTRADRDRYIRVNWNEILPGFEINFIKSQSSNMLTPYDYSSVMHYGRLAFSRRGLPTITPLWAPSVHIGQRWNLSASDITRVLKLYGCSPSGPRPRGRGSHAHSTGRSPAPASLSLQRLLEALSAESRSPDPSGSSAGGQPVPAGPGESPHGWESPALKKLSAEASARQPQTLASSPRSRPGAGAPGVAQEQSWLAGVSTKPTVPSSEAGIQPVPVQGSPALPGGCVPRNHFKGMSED
Excerpt: A western blot of human SAS1B and mouse SAS1B was probed with anti-human SAS1B murine monoclonal antibodies SB1, SB2, SB3, SB4, SB5, SB6, and SB7.

[3] = target: T2, full-length SAS1B splice variant A polypeptide (Homo sapiens, UniProt Q6HA08); assay: Western blot with mammalian cell-expressed recombinant SAS1B, full length; format: binding
T2 construct: made in house
T2 sequence (Q6HA08 24-431): T1 sequence (Q6HA08 24-431)
Procedure: (§1) SAS1B monoclonal antibodies were analyzed with mammalian cell-expressed recombinant SAS1B by western blotting.

[4] = target: T3, SAS1B extracellular domain (aa 164-431) polypeptide (Homo sapiens, UniProt Q6HA08); assay: Western blot with mammalian cell-expressed recombinant SAS1B, extracellular domain; format: binding
T3 construct: SAS1B extracellular domain (aa 164-431) polypeptide; made in house
T3 sequence (Q6HA08 164-431): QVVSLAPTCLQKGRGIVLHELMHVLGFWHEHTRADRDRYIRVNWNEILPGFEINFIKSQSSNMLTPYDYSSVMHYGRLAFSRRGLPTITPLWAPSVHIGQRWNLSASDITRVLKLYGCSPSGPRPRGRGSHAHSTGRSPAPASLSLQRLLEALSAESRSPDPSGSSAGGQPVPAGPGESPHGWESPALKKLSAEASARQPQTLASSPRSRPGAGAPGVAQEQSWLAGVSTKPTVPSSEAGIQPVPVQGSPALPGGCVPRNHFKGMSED
Procedure: as §1

[5] = target: T4, human SAS1B protein with a C-terminal V5 tag expressed by HEK293T cells (Homo sapiens, UniProt Q6HA08); assay: Double immunofluorescence on fixed and permeabilized HEK293T cells transfected with SAS1B SV-A with V5 tag; format: cell-based; conditions: for IF signal / colocalization with V5-tag epitope signal: SV-A transfected HEK293T, PFA fixed, methanol permeabilized, mAbs at 10 ug/ml
T4 construct: expressed in transfected cells; host or cells: HEK293T
T4 sequence (Q6HA08 24-431): T1 sequence (Q6HA08 24-431)
Procedure: Experiments were conducted to determine the specificity of anti-human SAS1B monoclonal antibodies SB1, SB2, SB3, SB4, SB5, SB6 and SB7 against the human SAS1B protein with a C-terminal V5 tag expressed by HEK293T cells by double immuno-fluorescence from two different SAS1B epitopes. HEK293T cells were seeded at ˜100,000 per well of a 24 well plate containing a lysine-coated 12 mm coverslip. 24 hours later, the cells were transfected with 1 ug of SV-A plasmid with 2 ul of TURBOFECT® transfection reagent followed by no change of media. 48 h later the cells were PFA (paraformaldehyde) fixed and methanol permeabilized for an IF study as follows.
The cells were removed from cell culture media and fixed in 4% PFA in PBS, 300 ul for 15 min. The cells were washed in 1 ml PBS in wells for 3 times and permeabilized in methanol (100%) for 15 min in 0.5 ml at RT. The cells were washed in PBS 1 ml for 3 times and blocked in complete culture media (DMEM) with 5% normal goat serum (NGS) for 30 min (i.e. BB, blocking buffer). The first antibody in BB was added for 1 h at 10 ug/ml for mouse monoclonal antibodies (SB1, SB2, SB3, SB4, SB5, SB6, SB7) and 5 ug/ml for anti-V5 DYLIGHT® 488 (green) rabbit (a rabbit polyclonal antibody to V5 tag). The cells were washed in PBS 3 times. The second antibody in BB (Goat anti-mouse Alexa Flour 594, red) was added for 1 h at 5 ug/ml (1:200 dilution). The cells were washed in PBS 3 times. The cells were mounted in slow fade DAPI 3 ul and stored at 4° C. before confocal imaging.

CN[C@@H]1C[C@H]2O[C@@](C)([C@@H]1OC)n1c3ccccc3c3c4c(c5c6ccccc6n2c5c31)C(=O)NC4 [Staurosporine, reference compound]
Cell killing [1]: killed the cancer cells in a dose dependent manner

B1: SB6: mouse anti-human SAS1B monoclonal antibody, IgG2b; VH SEQ ID NO:16, VL SEQ ID NO:18 (antibody, listed as Mus musculus, V domains shown)
VH: EVQLQQSGPELVKPGSSVKISCKPSGYTFTDYNMVWMKQSHGKSLEWIGAINPNNGGTTYNQKFKGKATLTVDKSSSTAYMELRSLTSEDSAVYYCAPNWDWFAYWGQGTLVTVSA
VL: DVLMTQIPLSLPVSLGDQASISCRSSQSILHSNGNTYLEWYLQKPGQSPKLLIYKVSNRFSGVPDRFSGSGSGTDFTLKISRVEAEDLGVYYCFQGSHVPFTFGSGTKLEIK
Reactivity on western blot of human SAS1B and mouse SAS1B [2]: specific to the human SAS1B only | Specificity in western blot for human SAS1B antigen in an E. coli protein background [2]: demonstrated specificity | Specifically binds human SAS1B (and not mouse SAS1B) [2]: Yes | Reaction with full-length SAS1B splice variant A polypeptide [3]: reacted with the full-length SAS1B splice variant A polypeptide | Reaction with SAS1B extracellular domain (aa 164-431) polypeptide [4]: none of the them reacted | IF signal / colocalization with V5-tag epitope signal [5]: colocalize (merge) with V5-tag epitope signal | Signal on mock transfected HEK293T cells [5]: no V5 signal or SAS1B signal

B2: SB7: mouse anti-human SAS1B monoclonal antibody, IgG2b; VH SEQ ID NO:16, VL SEQ ID NO:18 (antibody, listed as Mus musculus, V domains shown)
VH: B1 VH
VL: B1 VL
Reactivity on western blot of human SAS1B and mouse SAS1B [2]: specific to the human SAS1B only | Specificity in western blot for human SAS1B antigen in an E. coli protein background [2]: demonstrated specificity | Specifically binds human SAS1B (and not mouse SAS1B) [2]: Yes | Reaction with full-length SAS1B splice variant A polypeptide [3]: reacted with the full-length SAS1B splice variant A polypeptide | Reaction with SAS1B extracellular domain (aa 164-431) polypeptide [4]: none of the them reacted | IF signal / colocalization with V5-tag epitope signal [5]: colocalize (merge) with V5-tag epitope signal | Signal on mock transfected HEK293T cells [5]: no V5 signal or SAS1B signal
